How the values were obtained:
INCENP FL = biological target: T1, INCENP FL (Homo sapiens, UniProt Q9NQS7); assay: western blot, HeLa cell lysate on SDS-PAGE / PVDF, INC-N-16 Fab as primary, anti-human F(ab')2 IgG-HRP secondary
T1 construct: full length, denatured on SDS-PAGE and blotted; also called full-length INCENP in HeLa cell lysate
Experimental: (§1) Membranes were stained with Ponceau S dye to verify correct transfer of the proteins, were briefly washed with ddH2O and blocked with 4% skimmed milk in TBS-T containing 0.05% Tween20 for 30 min. at RT on the shaker. […] Membranes were washed 3 times with TBS-T and incubated with secondary anti-human FAB′2 specific HRP-conjugated IgG (diluted 1:10,000 in blocking buffer) for 45 minutes at RT, shaking. Membranes were washed again 3× with TBS-T, developed with ECL chemiluminescent substrate and visualized with the Biorad imaging instrument (FIG. 11).

[1] = biological target: T2, INCENP N-terminal domain (1-58), His- and Avi-tagged, biotinylated (UniProt Q9NQS7 1-58, biotinylated (Avi-tag, co-expressed E. coli biotin ligase BirA)); assay: western blot, recombinant INC-N on SDS-PAGE / PVDF, INC-N-16 Fab as primary, anti-human F(ab')2 IgG-HRP secondary
T2 construct: range 1-58; Expressed in E. coli BL21(DE3); also called INC-N; INCENP N-terminal domain (AA 1-58); not shown: His-tag and Avi-tag
T2 sequence (looked up): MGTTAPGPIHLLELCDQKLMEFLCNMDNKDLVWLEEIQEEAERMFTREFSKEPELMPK
Experimental: as §1

- binding result (INCENP FL): binds
- binding result [1]: binds
B1: INC-N-16 Fab (Fab, V domains shown)
VH: EVQLVESGGGLVQPGGSLRLSCAASGFNFYSSSIHWVRQAPGKGLEWVASIYPYSGYTSYADSVKGRFTISADTSKNTAYLQMNSLRAEDTAVYYCARAWIYAMDYWGQGTLVTVSS
VL: DIQMTQSPSSLSASVGDRVTITCRASQSVSSAVAWYQQKPGKAPKLLIYSASSLYSGVPSRFSGSRSGTDFTLTISSLQPEDFATYYCQQWDQWLITFGQGTKVEIKR

Reference: patent US20240408138A1 (UNIVERSITY OF CHICAGO, published 2024)
